Results published in patent US6531296B1, “Nuclear tyrosine kinase Rak” (The University of North Carolina at Chapel Hill, priority 1995, dated 2003).

Tests used:
[1] = test system: CSK (p50csk); test: In vitro kinase assay: phosphorylation of Rak carboxy-terminal peptides by CSK; assay type: biochemical; details: relative to wild-type peptide for the mutants
Experimental: Peptide, Preparation for Phosphorylation. Initially, the OAg was tested for phosphorylation by CSK in an in vitro kinase reaction and was phosphorylated. To further assess which tyrosine was phosphorylated, each of the four tyrosines in the substrate peptide were mutated to phenylalanine by the double-stranded, site-directed mutagenesis method (Deng and Nickoloff. Site-directed mutagenesis of virtually any plasmid by eliminating a unique site. Anal. Biochem., 200:81-88 (1992)). The plasmid was denatured by heating to 100° C. for 5 min and then annealed to a mutagenic primer and a second primer converting an Af/AII site on the plasmid to a Bg/II site. The mutagenic primers for the four tyrosines were: Y45Uf, 5′-[…]-3′ (SEQ ID NO:9); Y163F, 5′-[…]-3′ (SEQ ID NO:10); Y490F, 5′-TGAAGAC-TTTTTTGAAACAG-3′ (SEQ ID NO:11); and Y497F, 5′-[…]-3′ (SEQ ID NO:12).
Purified μ50^csk and Enzyme Assays. p50^csk was produced in S/9 cells from a Baculovirus vector containing the full-length csk cDNA (Okada et al., J. Biol. Chem; 264:20886-20893(1989)), purified according to Murphy et al. (Mol. Cell. Biol., 13:5290-5300 (1993), and mixed with the different peptides of Rak. These peptides correspond to the last 62 amino acids of the kinase, containing four tyrosine residues (Y450, Y463, Y490, and […]), and mutant peptides where each of the four tyrosines was […]. The phosphorylation of the native peptide was compared to the that of the mutant peptides. For the in vitro kinase assay, different amounts of p50^csk were mixed with different amount of the peptides in a reaction buffer (10 mM HEPES (pH 7.4) 10 mM MnCl21. Four μg bovine serum albumin were added to the 20-μl mixture, and the reaction was initiated with the addition of AIP to 1 μm and 10 μCl of 1 γ-^32P)ATP (3000 Ci/mmol; Amersham). Tubes were incubated at 30° C. for 15 min, and the reaction was stopped by the addition of SDS-PAGE sample buffer. The samples were boiled and analyzed on 15% SDS-PAGE gels, which were fixed, stained, and exposed to film at […].
The Carboxy Terminus of Rak Is Phosphorylated by CSK. Since CSK phosphorylates the carboxy terminal tyrosines of several other Src-related kinases, the ability of CSK to phosphorylate a recombinant carboxy-terminal peptide of Rak was analyzed. […] Since this peptide contained four tyrosines at positions 450, 463, 490, and 497, each tyrosine was individually mutated to phenylalanine and then the peptides were assayed for phosphorylation by CSK. […] Indeed, this residue corresponds to the CSK phosphorylation site for the other Src family members with regard to its localization in regard to the kinase domain, although the sequence context of this tyrosine differs from that of the other Src-like kinases.

[2] = target: T1, RbABC (Rb amino acids 379-928, A/B pocket and carboxy-terminus) (Homo sapiens, UniProt P06400); test: Rb in vitro binding assay, GST-RbABC; details: for Rb binding of Rak deletion forms: Rb fusion protein not specified
T1 construct: Rb fusion proteins encoding amino acids 379-928 (RbABC); made in house; host or cells: pGEX-4T plasmid
T1 sequence (P06400 379-928): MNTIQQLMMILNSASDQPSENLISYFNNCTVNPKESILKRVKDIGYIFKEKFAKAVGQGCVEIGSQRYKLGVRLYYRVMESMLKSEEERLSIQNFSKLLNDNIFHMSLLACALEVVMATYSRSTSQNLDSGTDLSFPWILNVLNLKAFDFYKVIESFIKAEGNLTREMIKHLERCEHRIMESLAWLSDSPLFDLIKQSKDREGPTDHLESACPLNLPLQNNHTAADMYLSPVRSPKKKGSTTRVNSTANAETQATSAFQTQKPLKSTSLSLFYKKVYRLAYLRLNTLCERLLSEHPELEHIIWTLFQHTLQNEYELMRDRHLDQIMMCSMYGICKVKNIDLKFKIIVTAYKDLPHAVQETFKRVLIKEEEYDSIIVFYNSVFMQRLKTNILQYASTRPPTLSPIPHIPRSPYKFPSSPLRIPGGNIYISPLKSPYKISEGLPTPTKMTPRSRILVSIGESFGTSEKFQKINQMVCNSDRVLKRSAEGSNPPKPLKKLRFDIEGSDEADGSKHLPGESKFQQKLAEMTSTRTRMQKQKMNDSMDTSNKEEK
Experimental: (§1) Affinity Precipitations. DNA fragments encoding the amino terminal region of Rak were prepared using the polymerase chain reaction with Pyrococcus furiosus DNA polymerase (Stratagene), and cloned into the pGEX-4T plasmid (Pharmacia). Rb fusion proteins encoding amino acids 379-928 (RbABC, containing the A/B pocket region and the COOH-terminal domain) and 780-928 (RbC for COOH terminal domain only), were prepared similarly. The GST fusion proteins were induced and purified according to the manufacturer's instructions, and were analyzed by SDS-PAGE to ensure that an equal amount of protein was used for the affinity precipitation procedure.
The same procedure was followed for Rb in vitro binding assays, except that the Rb-GST fusion proteins were incubated in the in vitro translated forms of Rak in NP-40 buffer containing 0.5% fraction V bovine serum albumin (Boehringer Mannheim). After three washes with the same buffer, bound proteins were analyzed by SDS-PAGE and detected by autoradiography. Rak was in vitro translated using the TnT-coupled transcription/translation system (Promega) with 2 ug of the pAlt-Rak plasmid. The Rak (1-152) construct was prepared by digesting the pAlt-Rak plasmid with EcoRI to obtain the 5′ EcoRI fragment of Rak.
An in vitro binding reaction was then used to further identify the essential components for the Rak-Rb interaction. In vitro translated Rak was incubated with two Rb-GST fusion proteins, where one encoded amino acids 379-928, spanning the A/B pocket and carboxy-terminus (RbABC), while the other fusion protein encoded amino acids 780-928, and represented only the carboxy-terminus (RbC). […] As a control, the Src protein was in vitro translated and subjected to the same binding reaction, and no binding of Src to any portion of Rb was detected (data not shown).

[3] = target: T2, RbC (Rb amino acids 780-928, carboxy-terminus) (Homo sapiens, UniProt P06400); test: Rb in vitro binding assay, GST-RbC; details: in vitro translated protein
T2 construct: the other fusion protein encoded amino acids 780-928; made in house; host or cells: pGEX-4T plasmid
T2 sequence (P06400 780-928): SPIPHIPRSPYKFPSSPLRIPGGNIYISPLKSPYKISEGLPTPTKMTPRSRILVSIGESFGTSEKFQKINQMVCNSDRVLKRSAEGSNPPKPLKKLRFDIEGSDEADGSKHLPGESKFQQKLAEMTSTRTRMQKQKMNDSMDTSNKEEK
Experimental: as §1
The same procedure was followed for Rb in vitro binding assays, except that the Rb-GST fusion proteins were incubated in the in vitro translated forms of Rak in NP-40 buffer containing 0.5% fraction V bovine serum albumin (Boehringer Mannheim). After three washes with the same buffer, bound proteins were analyzed by SDS-PAGE and detected by autoradiography. […]
An in vitro binding reaction was then used to further identify the essential components for the Rak-Rb interaction. […] As a control, the Src protein was in vitro translated and subjected to the same binding reaction, and no binding of Src to any portion of Rb was detected (data not shown).

B1: wild-type peptide: hexahistidine fusion protein containing the 62 carboxy-terminal amino acids of Rak (protein, UniProt P42685 444-505, looked up, fragment)
chain: QMLAQNYRLPQPSNCPQQFYNIMLECWNAEPKERPTFETLRWKLEDYFETDSSYSDANNFIR
modifications: hexahistidine tag
notes: hexahistidine fusion protein containing the 62 carboxy-terminal amino acids of Rak
phosphorylation by CSK [1]: readily phosphorylated
phosphorylation by CSK ([1]; listed as OAg): phosphorylated

B2: mutant at position 450: 62-amino-acid carboxy-terminal Rak peptide with tyrosine 450 mutated to phenylalanine (protein, UniProt P42685 444-505, looked up, variant Y450F)
chain: QMLAQNFRLPQPSNCPQQFYNIMLECWNAEPKERPTFETLRWKLEDYFETDSSYSDANNFIR
modifications: C-terminal 62 residues His tag
notes: 62-amino-acid carboxy-terminal Rak peptide with tyrosine 450 mutated to phenylalanine
phosphorylation by CSK [1]: about one-half

B3: mutant at position 490: 62-amino-acid carboxy-terminal Rak peptide with tyrosine 490 mutated to phenylalanine (protein, UniProt P42685 444-505, looked up, variant Y490F)
chain: QMLAQNYRLPQPSNCPQQFYNIMLECWNAEPKERPTFETLRWKLEDFFETDSSYSDANNFIR
modifications: C-terminal 62 residues His tag
notes: 62-amino-acid carboxy-terminal Rak peptide with tyrosine 490 mutated to phenylalanine
phosphorylation by CSK [1]: about one-half

B4: 497 mutant: 62-amino-acid carboxy-terminal Rak peptide with tyrosine 497 mutated to phenylalanine (protein, UniProt P42685 444-505, looked up, variant Y497F)
chain: QMLAQNYRLPQPSNCPQQFYNIMLECWNAEPKERPTFETLRWKLEDYFETDSSFSDANNFIR
modifications: C-terminal 62 residues His tag
notes: 62-amino-acid carboxy-terminal Rak peptide with tyrosine 497 mutated to phenylalanine
phosphorylation by CSK [1]: barely detectable

B5: full-length Rak: in vitro translated full-length Rak protein (SEQ ID NO:2) (protein)
chain: MSNICQRLWEYLEPYLPCLSTEADKSTVIENPGALCSPQSQRHGHYFVALFDYHAPTAEELSFRAGDKLQVLDTLHEGWWFARHLEKRRDGSSQQLQGYIPSNYVAEDRSLQAEAWFFGAIRRSDAEKQLLYSENKTGSFLIRESESQKGEFSLSVLDGAVVKHYRIKRLDEGGFFLTRRRIFSTLNEFVSHYTKTSDGLCVKLGKPCLKIQVPAPFDLSYKTVDQWEIDRNSIQLLKRLGSGQFGEVWEGLWNNTTPVAVKTLKPGSMDPNDFLREAQIMKNLRHPKLIQLYAVCTLEDPIYIITELMRHGSLQEYLQNDTGSKIHLTQQVDMAAQVASGMAYLESRNYIHRDLAARNVLVGEHNIYKVADFGLARVFKVDNEDIYESRHEIKLPVKWTAPEAIRSNKFSIKSDVWSFGILLYEIITYGKMPYSGMTGAQVIQMLAQNYRLPQPSNCPQQFYNIMLECWNAEPKERPTFETLRWKLEDYFETDSSYSDANNFIR
binding to RbABC fusion protein ([2]; in vitro translated protein, SDS-PAGE and autoradiography): bound efficiently
binding to RbC protein, fold less than to RbABC [3]: approximately 5 fold

B6: Rak (amino acids 1-152): in vitro translated amino-terminal fragment of Rak with unique amino-terminal region and SH3 domain (protein, UniProt P42685 1-152, looked up, fragment)
chain: MSNICQRLWEYLEPYLPCLSTEADKSTVIENPGALCSPQSQRHGHYFVALFDYQARTAEDLSFRAGDKLQVLDTLHEGWWFARHLEKRRDGSSQQLQGYIPSNYVAEDRSLQAEPWFFGAIGRSDAEKQLLYSENKTGSFLIRESESQKGEF
less efficiency of binding to RbABC fusion protein ([2]; compared with full-length Rak): approximately 30%
binding to RbC protein [3]: no longer detectable

B7: Rak with amino acids 1-46 deleted: Rak lacking the unique N-terminal region (LPCLSTE sequence removed) (protein, UniProt P42685 47-505, looked up, fragment)
chain: FVALFDYQARTAEDLSFRAGDKLQVLDTLHEGWWFARHLEKRRDGSSQQLQGYIPSNYVAEDRSLQAEPWFFGAIGRSDAEKQLLYSENKTGSFLIRESESQKGEFSLSVLDGAVVKHYRIKRLDEGGFFLTRRRIFSTLNEFVSHYTKTSDGLCVKLGKPCLKIQVPAPFDLSYKTVDQWEIDRNSIQLLKRLGSGQFGEVWEGLWNNTTPVAVKTLKPGSMDPNDFLREAQIMKNLRHPKLIQLYAVCTLEDPIYIITELMRHGSLQEYLQNDTGSKIHLTQQVDMAAQVASGMAYLESRNYIHRDLAARNVLVGEHNIYKVADFGLARVFKVDNEDIYESRHEIKLPVKWTAPEAIRSNKFSIKSDVWSFGILLYEIITYGKMPYSGMTGAQVIQMLAQNYRLPQPSNCPQQFYNIMLECWNAEPKERPTFETLRWKLEDYFETDSSYSDANNFIR
Rb binding of Rak deletion forms [2]: no change in Rb binding

B8: Rak with amino acids 1-110 deleted: Rak lacking the unique N-terminal region and the SH3 domain (protein, UniProt P42685 111-505, looked up, fragment)
chain: LQAEPWFFGAIGRSDAEKQLLYSENKTGSFLIRESESQKGEFSLSVLDGAVVKHYRIKRLDEGGFFLTRRRIFSTLNEFVSHYTKTSDGLCVKLGKPCLKIQVPAPFDLSYKTVDQWEIDRNSIQLLKRLGSGQFGEVWEGLWNNTTPVAVKTLKPGSMDPNDFLREAQIMKNLRHPKLIQLYAVCTLEDPIYIITELMRHGSLQEYLQNDTGSKIHLTQQVDMAAQVASGMAYLESRNYIHRDLAARNVLVGEHNIYKVADFGLARVFKVDNEDIYESRHEIKLPVKWTAPEAIRSNKFSIKSDVWSFGILLYEIITYGKMPYSGMTGAQVIQMLAQNYRLPQPSNCPQQFYNIMLECWNAEPKERPTFETLRWKLEDYFETDSSYSDANNFIR
Rb binding of Rak deletion forms [2]: minimally detectable
